Measured values published in patent publication US20220233746A1, “PHARMACEUTICAL COMPOSITION FOR JOINT DISEASE TREATMENT AND METHOD FOR PRODUCING SAME” (EDUCATIONAL FOUNDATION OF OSAKA MEDICAL AND PHARMACEUTICAL …, priority 2019, published 2022).

Legend:
[1] = Measurement of mechanical strength of peptide hydrogel (rheology measurement, rheometer); assay type: physicochemical
Method: Next, an equal amount (100 μL) of 2×PBS, 4×PBS, 6×PBS or 10×PBS was added to the aqueous peptide solution and mixed. Therefore, the final concentration of PBS in the mixture was 1×PBS, 2×PBS, 3×PBS, and 5×PBS, respectively. Thereafter, it was allowed to stand still in a cool and dark place for one day. As a result, the peptide in the aqueous peptide solution self-assembled by the action of the salt in PBS, and a peptide hydrogel was obtained. In addition, as a comparative example, Eagle's minimum essential medium (EMEM), which contains salts necessary for gel formation but is considered to be toxic in vivo, or 10 wt % NaCl aqueous solution (final concentration is 5 wt %) was added in an equal amount to the peptide aqueous solution and mixed, and the mixture was allowed to stand still in a cool and dark place for 1 day. A peptide hydrogel was also obtained in this comparative example.
[Example 2: Measurement of mechanical strength of peptide hydrogel] In order to evaluate the mechanical strength of each peptide hydrogel obtained as described above, a rheometer (HAAKE viscosity/viscoelasticity measuring device (HAAKE MARS40) manufactured by Thermo Scientific) was used for each peptide hydrogel and the rheology thereof was measured.

[2] = tested on: rabbit meniscus defect; assay: Rabbit meniscus defect model, transplantation of peptide hydrogel into the defect; assay type: in vivo, Japanese white rabbits
Method: First, 20 male Japanese white rabbits weighing 3.0 to 3.4 kg at 6 months of age were prepared, and a cylindrical defect with a diameter of 2.0 mm was prepared in the medial anterior segment of the meniscus of both knees (FIG. 2A). Further, a peptide hydrogel produced by the above method using a peptide of KI24RGDS and 5×PBS was prepared (FIG. 2B), and the peptide hydrogel was filled in the defect. The group in which the defect was filled with peptide hydrogel was designated as the KI24RGDS group, and the group in which no treatment was applied to the defect was designated as the control group. After transplantation, tissue evaluation was performed on the knees of each group using hematoxylin/eosin staining (HE staining) or safranin O staining. Tissue evaluation was performed at 2, 4, 8 and 12 weeks after transplantation, and 5 animals (10 knees) were evaluated at each evaluation period. In addition, the tissue evaluation used Ishida score and Quantitative Analysis of the Occupation Ratio of Tissue Regeneration (R/D ratio). In the evaluation based on Ishida score, scores were given from the three viewpoints shown in Table 1 below, and the degree of tissue repair was evaluated by the total. On the other hand, in the evaluation based on the R/D ratio, the degree of tissue repair was evaluated by analyzing the area of the entire defect (D) and the area of the repaired tissue (R) and calculating the ratio of R/D using ImageJ software as shown in FIG. 3.

[3] = hydrogel made with 5×PBS filled in 2.0 mm meniscus defect, 2, 4, 8 and 12 weeks after transplantation, versus untreated control group

With “IKIKIKIKIKRGDSKIKIKIKIKI (Peputide including strand and turn) [KI24RGDS, self-assembling β-hairpin peptide tested as a peptide hydrogel formed by adding PBS, NaCl solution or EMEM to its aqueous solution]” the “difference between the storage elastic modulus G and the loss elastic modulus G″” value ([1]; comparative hydrogel produced with 5 wt % NaCl aqueous solution (final concentration)) was “approximately 3750”, the “difference between the storage elastic modulus G and the loss elastic modulus G″” value ([1]; hydrogel produced with 3×PBS (final concentration)) was “approximately 3950” and the “loss elastic modulus G″ of the peptide hydrogel” value ([1]; hydrogel produced with 5×PBS (final concentration)) was “about 800”. For the same sequence, the “storage elastic modulus G of the peptide hydrogel” value ([1]; hydrogel produced with 5×PBS (final concentration), 6% aqueous peptide solution mixed in equal amount) was “about 15,000”, the “macroscopic findings of the meniscus defect” value ([2]; 2, 4, 8 and 12 weeks after transplantation (FIG. 4)) was “became smaller and repaired” and the “safranin O-stained meniscus tissue findings” value ([2]; 2, 4, 8 and 12 weeks after transplantation (FIG. 5)) was “cells gathered in the defect and the tissue was repaired”. The Ishida score [2, 3] was “higher in the KI24RGDS group than in the control group” and the “R/D ratio (Occupation Ratio of Tissue Regeneration)” value [2, 3] was “higher in the KI24RGDS group than in the control group”.
